Laboratory results as given in US9446226B2, “Drug-delivering composite structures” (Ramot at Tel-Aviv University Ltd., priority 2005, dated 2016).

Columns and labels:
[1] = In vitro paclitaxel release from composite fibrous structures; assay type: physicochemical; details: PBS 37° C.
Description: Cumulative release of paclitaxel from samples of composite fibrous structures was monitored and followed over a time period of four months. Samples of composite structures were immersed in PBS at 37° C. for 112 days. The medium was entirely removed periodically and assayed for drug release, and fresh medium was introduced. The paclitaxel content of each medium sample was determined using Agilent 1100 High Performance Liquid Chromatography (HPLC).

[2] = In-vitro HRP release from composite fibrous structures; assay type: physicochemical
Description: Various samples of HRP-containing composite fibrous structures were used to determine the release kinetics of HRP over a time period of 90 days. The HRP release studies were conducted in closed 1 ml glass vessels in which the HRP-containing composite fibrous structures were immersed in 1 ml sterile double-distilled water containing sodium azide as preservative (0.05% w/w) at 37° C. The entire aqueous medium was replaced periodically by fresh medium and HRP content in the removed medium was determined by the micro BCA assay method, by measuring absorbance at 595 nm.
Cumulative HRP release profiles were determined relative to the initial amount of HRP in each of the tested structures, i.e., the amount of HRP released during the incubation period and the residual HPR remaining in the structures. All experiments were performed in triplicate.
Residual protein recovery front composite fibrous structures: Residual protein recovery from spent composite fibrous structure samples used in the abovementioned in-vitro release experiments was conducted according to a previously described method [Jeffery H et al., Pharm. Res., 1993, 10(3), pp 362-368].
Briefly, composite fibrous structures were extracted in 1 ml sodium dodecyl sulfate (SDS)/NaOH 5%/0.1 M solution for 48 hours at 37° C. Following extraction, the HRP concentration was estimated using a micro BCA assay method as described hereinabove. Based on these assays, the exact amount of the HRP loaded in each structure was determined and served for calculating the percentages cited in the assays above.

[3] = as obtained from Aldrich; cited from earlier work

Compound | paclitaxel released during the first 24 hours ([1]; emulsions containing 2.9% w/w paclitaxel) | paclitaxel released during the first 24 hours ([1]; fibers coated with emulsion containing 7.14% w/w paclitaxel) | burst effect of paclitaxel release during the first days ([1]; standard reference emulsion (17.5% w/v polymer, 1.43% w/w paclitaxel, O:A 2:1), nylon core) | initial burst of HRP release ([2]; 1% w/w HRP load, O:A 4:1, water with sodium azide, 37° C.) | initial burst of HRP release (mean) ([2]; 5% w/w HRP load, O:A 4:1, water with sodium azide, 37° C.) | active enzyme released during the 90 day experiment ([2]; 5% w/w HRP load, O:A 4:1, 8:1, 16:1, coat-polymer 13%, 15%, 19% w/v, 90 days) | burst effect of HRP release ([2]; O:A 4:1 formulations, 5% w/w HRP load) | burst effect of HRP release ([2]; O:A 8:1, 5% w/w HRP, highest coat-polymer content (19% w/v)) | burst effect of HRP release ([2]; O:A 8:1, 5% w/w HRP, lowest coat-polymer content (13% w/v)) | burst effect of HRP release ([2]; O:A 16:1, 5% w/w HRP, highest coat-polymer content (19% w/v)) | burst effect of HRP release ([2]; O:A 16:1, 5% w/w HRP, lowest coat-polymer content (13% w/v)) | burst effect of HRP release ([2]; O:A 16:1 formulations, 5% w/w HRP load) | initial enzymatic activity [3]
CC(=O)O[C@H]1C(=O)[C@@]2(C)[C@H]([C@H](OC(=O)c3ccccc3)[C@]3(O)C[C@H](OC(=O)[C@H](O)[C@@H](NC(=O)c4ccccc4)c4ccccc4)C(C)=C1C3(C)C)[C@]1(OC(C)=O)CO[C@@H]1C[C@@H]2O [paclitaxel, Paclitaxel] | 3% | 7% | less than 3% |  |  |  |  |  |  |  |  |  | 
Horseradish peroxidase [HRP] |  |  |  | 20% | 70% | at least 90% | 70-80% | 26% | 66% | 10% | 20% | 10-20% | 500 U/mg
